Assay results from IntAct's records for PubMed 11854419.

B1: COP9 signalosome complex subunit 1 (Arabidopsis thaliana (Mouse-ear cress)), P45432 (parent)
chain: MERDEEASGPMMEMCTNGGEETSNRRPIISGEPLDIEAYAALYKGRTKIMRLLFIANHCGGNHALQFDALRMAYDEIKKGENTQLFREVVNKIGNRLGEKYGMDLAWCEAVDRRAEQKKVKLENELSSYRTNLIKESIRMGYNDFGDFYYACGMLGDAFKNYIRTRDYCTTTKHIIHMCMNAILVSIEMGQFTHVTSYVNKAEQNPETLEPMVNAKLRCASGLAHLELKKYKLAARKFLDVNPELGNSYNEVIAPQDIATYGGLCALASFDRSELKQKVIDNINFRNFLELVPDVRELINDFYSSRYASCLEYLASLKSNLLLDIHLHDHVDTLYDQIRKKALIQYTLPFVSVDLSRMADAFKTSVSGLEKELEALITDNQIQARIDSHNKILYARHADQRNATFQKVLQMGNEFDRDVRAMLLRANLLKHEYHARSARKL
partner: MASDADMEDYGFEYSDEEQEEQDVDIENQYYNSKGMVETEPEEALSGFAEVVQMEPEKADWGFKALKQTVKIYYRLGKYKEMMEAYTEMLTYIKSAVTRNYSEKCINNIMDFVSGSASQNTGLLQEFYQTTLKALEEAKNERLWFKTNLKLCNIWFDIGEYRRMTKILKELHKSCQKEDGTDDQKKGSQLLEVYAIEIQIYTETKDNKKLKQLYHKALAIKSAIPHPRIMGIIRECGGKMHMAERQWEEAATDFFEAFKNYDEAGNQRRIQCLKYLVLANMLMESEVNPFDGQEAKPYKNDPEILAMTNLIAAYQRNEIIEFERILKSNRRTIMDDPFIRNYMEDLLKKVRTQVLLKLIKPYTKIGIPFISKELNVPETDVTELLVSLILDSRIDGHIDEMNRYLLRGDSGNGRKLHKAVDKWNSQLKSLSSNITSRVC
B2: COP9 signalosome complex subunit 1 (Arabidopsis thaliana (Mouse-ear cress)), P45432 (parent)
chain: B1 chain
partner: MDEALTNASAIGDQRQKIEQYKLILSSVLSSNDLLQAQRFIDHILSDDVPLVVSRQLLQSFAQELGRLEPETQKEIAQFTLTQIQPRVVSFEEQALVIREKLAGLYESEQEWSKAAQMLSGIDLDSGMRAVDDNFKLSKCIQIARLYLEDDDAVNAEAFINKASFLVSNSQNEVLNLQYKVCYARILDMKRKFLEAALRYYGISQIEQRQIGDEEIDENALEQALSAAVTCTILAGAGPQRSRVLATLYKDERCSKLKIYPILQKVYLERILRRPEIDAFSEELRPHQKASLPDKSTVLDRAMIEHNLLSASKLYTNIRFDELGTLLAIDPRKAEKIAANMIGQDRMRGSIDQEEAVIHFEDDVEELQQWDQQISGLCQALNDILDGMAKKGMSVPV

Variants of: B1
Conditions: with csn2_arath CSN2, Q8W207

effect of a mutation on the interaction	Variant
disrupting interaction	MERDEEASGPMMEMCTNGGEETSNRRPIISGEPLDIEAYAALYKGRTKIMRLLFIANHCGGNHALQFDALRMAYDEIKKGENTQLFREVVNKIGNRLGEKYGMDLAWCEAVDRRAEQKKVKLENELSSYRTNLIKESIRMGYNDFGDFYYACGMLGDAFKNYIRTRDYCTTTKHIIHMCMNAILVSIEMGQFTHVTSYVNKAEQNPETLEPMVNAKLRCASRLAHLELKKYKLAARKFLDVNPELGNSYNEVIAPQDIATYGGLCALASFDRSELKQKVIDNINFRNFLELVPDVRELINDFYSSRYASCLEYLASLKSNLLLDIHLHDHVDTLYDQIRKKALIQYTLPFVSVDLSRMADAFKTSVSGLEKELEALITDNQIQARIDSHNKILYARHADQRNATFQKVLQMGNEFDRDVRAMLLRANLLKHEYHARSARKL [G222R]

Variants of: B2
Conditions: with csn4_arath CSN4, Q8L5U0

effect of a mutation on the interaction	Variant
disrupting interaction	MERDEEASGPMMEMCTNGGEETSNRRPIISGEPLDIEAYAALYKGRTKIMRLLFIANHCGGNHALQFDALRMAYDEIKKGENTQLFREVVNKIGNRLGEKYGMDLAWCEAVDRRAEQKKVKLENELSSYRTNLIKESIRMGYNDFGDFYYACGMLGDAFKNYIRTRDYCTTTKHIIHMCMNAILVSIEMGQFTHVTSYVNKAEQNPETLEPMVNAKLRCASRLAHLELKKYKLAARKFLDVNPELGNSYNEVIAPQDIATYGGLCALASFDRSELKQKVIDNINFRNFLELVPDVRELINDFYSSRYASCLEYLASLKSNLLLDIHLHDHVDTLYDQIRKKALIQYTLPFVSVDLSRMADAFKTSVSGLEKELEALITDNQIQARIDSHNKILYARHADQRNATFQKVLQMGNEFDRDVRAMLLRANLLKHEYHARSARKL [G222R]
